{"source": "patent US20220098306A1", "about": "(published 2022)", "binders": {"B1": {"name": "XENP34717 (bispecific antibody)", "heavy 1": "EVQLLESGGGLVQPGGSLRLSCAASGFTFSSYYMSWVRQAPGKGLEWVSTISESGDSTYYADSVKGRFTISRDNSKNTLYLQMNSLRAEDTAVYYCAKSGPGLRQVGFDYWGQGTLVTVSSASTKGPSVFPLAPSSKSTSGGTAALGCLVKDYFPEPVTVSWNSGALTSGVHTFPAVLQSSGLYSLSSVVTVPSSSLGTQTYICNVNHKPSDTKVDKKVEPKSCDKTHTCPPCPAPPVAGPSVFLFPPKPKDTLMISRTPEVTCVVVDVKHEDPEVKFNWYVDGVEVHNAKTKPREEEYNSTYRVVSVLTVLHQDWLNGKEYKCKVSNKALPAPIEKTISKAKGQPREPQVYTLPPSREEMTKNQVSLTCDVSGFYPSDIAVEWESDGQPENNYKTTPPVLDSDGSFFLYSKLTVDKSRWEQGDVFSCSVMHEALHNHYTQKSLSLSPGK", "heavy 2": "QVQLVQSGAEVKKPGASVKVSCKASGYIFTNNYMHWVRQAPGQGLEWMGIISPSVGRTAYAQKFQGRVTMTRDTSTSTVYMELSSLRSEDTAVYYCARGGGSSPRLDYWGQGTLVTVSSASTKGPSVFPLAPSSKSTSGGTAALGCLVKDYFPEPVTVSWNSGALTSGVHTFPAVLQSSGLYSLSSVVTVPSSSLGTQTYICNVNHKPSNTKVDKKVEPKSCDKTHTCPPCPAPPVAGPSVFLFPPKPKDTLMISRTPEVTCVVVDVKHEDPEVKFNWYVDGVEVHNAKTKPREEQYNSTYRVVSVLTVLHQDWLNGKEYKCKVSNKALPAPIEKTISKAKGQPREPQVYTLPPSREQMTKNQVKLTCLVKGFYPSDIAVEWESNGQPENNYKTTPPVLDSDGSFFLYSKLTVDKSRWQQGNVFSCSVMHEALHNHYTQKSLSLSPGK", "light": "not shown"}, "B2": {"name": "XENP34728 (6A1) (antibody, V domains shown)", "VH": "EVQLLESGGGLVQPGGSLRLSCAASGFTFSNYYMAWVRQAPGKGLEWVSSISTGGGSTYYRDSVKGRFTISRDNSKSTLYLQMNSLRAEDTAVYYCTTDLSAIAATPFAYWGQGTLVTVSS", "VL": "DIQMTQSPSSLSASVGDRVTITCRASQNIYTSLAWYQQKPGKAPKLLIYNAHSLQTGIPSRFSGSGSGADFTLTISSLQPEDFATYFCQQYYSGLTFGSGTKLEIKR"}, "B3": {"name": "XENP28428 (antibody, V domains shown)", "VH": "EVQLLESGGGLVQPGGSLRLSCAASGFTFSSYAMSWVRQAPGKGLEWVSTISGSGDSTYYADSVKGRFTISRDNSKNTLYLQMNSLRAEDTAVYYCAKSGPGLRQVGFDYWGQGTLVTVSS", "VL": "not shown"}, "B4": {"name": "human B7H3 (V1C1-V2C2) (ligand)", "chain": "LEVQVPEDPVVALVGTDATLCCSFSPEPGFSLAQLNLIWQLTDTKQLVHSFAEGQDQGSAYANRTALFPDLLAQGNASLRLQRVRVADEGSFTCFVSIRDFGSAAVSLQVAAPYSKPSMTLEPNKDLRPGDTVTITCSSYQGYPEAEVFWQDGQGVPLTGNVTTSQMANEQGLFDVHSILRVVLGANGTYSCLVRNPVLQQDAHSSVTITPQRSPTGAVEVQVPEDPVVALVGTDATLRCSFSPEPGFSLAQLNLIWQLTDTKQLVHSFTEGRDQGSAYANRTALFPDLLAQGNASLRLQRVRVADEGSFTCFVSIRDFGSAAVSLQVAAPYSKPSMTLEPNKDLRPGDTVTITCSSYRGYPEAEVFWQDGQGVPLTGNVTTSQMANEQGLFDVHSVLRVVLGANGTYSCLVRNPVLQQDAHGSVTITGQPMTFPPEA"}}, "key": {"[1]": {"target": "T1, mouse Fc fusion of B7H3, full extracellular V1C1-V2C2 domain (human, UniProt Q5ZPR3 29-466)", "T1 chain": "B4 chain", "assay": "Octet"}, "huB7H3 (V2C2)": {"target": "T2, huB7H3 (V2C2)", "T2 chain": "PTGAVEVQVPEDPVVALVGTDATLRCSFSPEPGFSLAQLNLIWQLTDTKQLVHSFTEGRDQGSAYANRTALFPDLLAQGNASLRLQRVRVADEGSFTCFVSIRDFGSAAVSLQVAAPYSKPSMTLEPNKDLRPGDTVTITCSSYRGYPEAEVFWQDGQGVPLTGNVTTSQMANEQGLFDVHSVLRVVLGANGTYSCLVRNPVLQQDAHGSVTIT", "assay": "Octet"}, "huB7H3 (V1C1)": {"target": "T3, huB7H3 (V1C1)", "T3 chain": "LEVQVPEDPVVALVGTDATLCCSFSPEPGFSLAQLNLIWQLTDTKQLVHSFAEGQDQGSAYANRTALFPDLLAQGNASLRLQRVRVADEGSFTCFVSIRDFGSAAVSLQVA", "assay": "Octet"}, "[2]": {"target": "CD28 (antigen of the affinity determinations) (human, UniProt P10747 19-152)", "assay": "Octet; avid"}}}
{"binder": "B1", "values": [{"measurement": "Kd", "setting": "[1]", "result": 16, "unit": "nM"}, {"measurement": "Kd", "setting": "huB7H3 (V2C2)", "result": 21, "unit": "nM"}, {"measurement": "Kd", "setting": "huB7H3 (V1C1)", "result": 21, "unit": "nM"}]}
{"binder": "B2", "values": [{"measurement": "Kd", "setting": "[1]", "result": 4.3, "unit": "nM"}, {"measurement": "Kd", "setting": "huB7H3 (V2C2)", "result": 6.4, "unit": "nM"}, {"measurement": "Kd", "setting": "huB7H3 (V1C1)", "result": 4.4, "unit": "nM"}]}
{"binder": "B3", "values": [{"measurement": "Kd", "setting": "[2]", "result": 14.5, "unit": "nM"}]}
{"binder": "B4", "values": [{"measurement": "Kd", "setting": "4F12_H2_L1.1", "result": "< 0.1", "unit": "nM"}]}
